Target: β-klotho (KLB)
Experiment: cell-based or functional assay

An FGF21 activity (EC50, nM) of 0.12 nM was found for “Natural FGF21 (from UniProt Q9NSA1 29-209) (ligand)” in this work.

Source: patent US20220340635A1, “FUSION PROTEIN FOR TREATMENT OF METABOLIC DISEASE” (ZHEJIANG DOER BIOLOGICS CORPORATION, priority 2019, published 2022)
